Test results: PMC4872217, “Structural and functional insights into the E3 ligase, RNF126” (Scientific Reports, 2016)

B1: RNF126_NZF (RNF126 N-terminal zinc finger domain, residues 1-40) (domain or fragment, human, UniProt Q9BV68 1-40, looked up)
chain: MAEASPHPGRYFCHCCSVEIVPRLPDYICPRCESGFIEEL
notes: RNF126, human, residues 1-40 (N-terminal zinc finger); 15N- or 15N,13C-labelled where it was the observed protein in NMR; Cultures were supplemented with 10 uM ZnCl2; also called RNF126 1-40; not shown: thioredoxin A, N-terminal, cleaved; His6, N-terminal, cleaved
B2: BAG6_UBL (UBL domain of BAG6, residues 17-101) (domain or fragment, UniProt P46379 17-101, looked up)
chain: LEVLVKTLDSQTRTFIVGAQMNVKEFKEHIAASVSIPSEKQRLIYQGRVLQDDKKLQEYNVGGKVIHLVERAPPQTHLPSGASSG
notes: BAG6 (BCL2-associated athanogene 6), UBL domain, residues 17-101; The general purification protocol describes TEV cleavage; also called BAG6 UBL domain; source: E. coli BL21 (DE3), purified

What was measured:
[1] = biological target: UBL4A_UBL (UBL domain of UBL4A, residues 1-74) (UniProt P11441); experiment: NMR titration; unlabelled protein titrated into 15N-labelled protein, 1H-15N HSQC chemical shift perturbation; 25 °C; 10 mM potassium phosphate pH 6.0, 100 mM NaCl, 250 μM TCEP; for RNF126_NZF into UBL4A_UBL fitted with DynaFit to a 1:1 model
[2] = biological target: B2; experiment: ITC; 500 μM RNF126_NZF (wild-type or mutant) injected into 50 μM BAG6_UBL in the cell; 25 °C; 10 mM potassium phosphate pH 6.0, 100 mM NaCl, 250 μM TCEP; conditions: both partners purified
[3] = biological target: T1, RNF126 N-terminal region (residues 1-100) (human, UniProt Q9BV68 1-100); experiment: NMR titration; unlabelled protein titrated into 15N-labelled protein, 1H-15N HSQC chemical shift perturbation; 25 °C; 10 mM potassium phosphate pH 6.0, 100 mM NaCl, 250 μM TCEP; for RNF126_NZF into UBL4A_UBL fitted with DynaFit to a 1:1 model; conditions: both partners purified
T1 construct: RNF126, human, residues 1-100; also called RNF126 1-100; RNF126_NT (1-100); not shown: thioredoxin A, N-terminal, cleaved; His6, N-terminal, cleaved

[4] = biological target: B1; experiment: as above; conditions: both partners purified
[5] = biological target: T2, SGTA_NT (N-terminal SGTA, residues 1-86) (human, UniProt O43765 1-86); experiment: as above; conditions: both partners purified
T2 construct: SGTA (small glutamine-rich tetratricopeptide repeat-containing protein alpha), human, residues 1-86; Only the 1-86 construct is described in the methods; not shown: thioredoxin A, N-terminal, cleaved; His6, N-terminal, cleaved
T2 sequence (O43765 1-86): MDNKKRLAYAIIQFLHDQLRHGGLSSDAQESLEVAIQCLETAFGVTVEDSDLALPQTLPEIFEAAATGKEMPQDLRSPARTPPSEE

Binder	Kd [2]	binding result [3]	further results
B1	0.4 ± 0.05 µM	–	Kd [1]: 16.6 µM; dH [2]: -4.52 ± 0.04 kcal/mol; stoichiometry N [2]: 1
MAEASPHPGRYFCHCCSVEIVPRLPDYICPRCESGAIEEL (domain or fragment, human, UniProt Q9BV68 1-40, looked up, RNF126, human, residues 1-40, with F36A; Made by PCR mutagenesis on pET28-GFP-RNF126 (1-40); in the native PAGE the mutants were GFP tagged; also called Phe36/Ala; source: E. coli BL21 (DE3), purified) [RNF126_NZF F36A mutant]	5 ± 0.3 µM	–	–
MAEASPHPGRYFCACCSVEIVPRLPDYICPRCESGFIEEL (domain or fragment, human, UniProt Q9BV68 1-40, looked up, RNF126, human, residues 1-40, with H14A; Made by PCR mutagenesis on pET28-GFP-RNF126 (1-40); in the native PAGE the mutants were GFP tagged; also called His14/Ala; source: E. coli BL21 (DE3), purified) [RNF126_NZF H14A mutant]	> 50 µM	–	–
B2	–	binds	stoichiometry N [4]: ~1 molar ratio; binding result [5]: binds
UBL4A_UBL (UBL domain of UBL4A, residues 1-74) (domain or fragment, UniProt P11441 1-74, looked up, UBL4A (ubiquitin-like protein 4A), UBL domain, residues 1-74; source: E. coli Rosetta, purified) MQLTVKALQGRECSLQVPEDELVSTLKQLVSEKLNVPVRQQRLLFKGKALADGKRLSDYSIGPNSKLNLVVKPL	–	binds	–
